{"source": "paper PMC10084705", "target": "SARS-CoV-2 main protease M^pro-C145A (SARS-CoV-2)", "assay": "cryo-EM structure"}
{"substance": "SARS-CoV-2 main protease M^pro-C145A (enzyme)", "values": [{"measurement": "stoichiometry N", "result": 2}]}
